Reference: patent publication US20230067757A1 (NOVAROCK BIOTHERAPEUTICS, published 2023)
Like-named read-outs stand apart in the source and are kept apart here.

Legend:
[1] = molecular target: T1, human claudin 18 isoform 1 (claudin 18.1) (human, UniProt P56856 1-261); test: immunofluorescence imaging on CHO cells expressing human CLDN18.1, antibody at 10 µg/ml
T1 construct: Recombinant on transfected CHO cells (CHO-CLDN18.1); also called CLDN18.1
Procedure: (§1) The specific cellular binding affinity of anti-Claudin18.2 antibodies was tested on CHO-CLDN18.2 (transfected CHO cell expressing recombinant human CLDN18.2) and CHO-CLDN18.1 (transfected CHO cell expressing recombinant human CLDN18.1) cells. The cells were plated in complete media containing F12 with 10% FBS, then incubated overnight at 37° C., anti-Claudin18.2 antibodies were serial diluted and added to the assay plates, incubated at 4° C. for 2 hours, followed by fixing cells and further staining the cells for 30 minutes with Alexa Fluor® 488 Goat Anti-Human IgG (H+L) secondary antibody, invitrogen Cat #A-11013 for detection. The binding was assessed by imaging the cells and quantifying the fluorescence intensity using a Biotek Cytation.

[2] = molecular target: human claudin 18 isoform 2 (claudin 18.2) (human); test: cell-based or functional assay
[3] = molecular target: T2, human claudin 18 isoform 2 (claudin 18.2) (human); test: immunofluorescence imaging, CHO-CLDN18.2 cells, serial dilution
T2 construct: Recombinant on transfected CHO cells (CHO-CLDN18.2) or endogenous on tumor cell lines PATU8988S, NUGC-4, KATOIII; the cell line is named under assay; also called CLDN18.2
Procedure: as §1

[4] = molecular target: T2, human claudin 18 isoform 2 (claudin …); test: imaging, PATU8988S cells (endogenous CLDN18.2); +++ = EC50 between 2 nM and 20 nM
[5] = molecular target: T2, human claudin 18 isoform 2 (claudin …); test: cell-based or functional assay; remark: listed apart in the source
[6] = molecular target: T2, human claudin 18 isoform 2 (claudin …); test: cell-based or functional assay; remark: listed apart in the source

T1 sequence (P56856 whole entry, canonical isoform): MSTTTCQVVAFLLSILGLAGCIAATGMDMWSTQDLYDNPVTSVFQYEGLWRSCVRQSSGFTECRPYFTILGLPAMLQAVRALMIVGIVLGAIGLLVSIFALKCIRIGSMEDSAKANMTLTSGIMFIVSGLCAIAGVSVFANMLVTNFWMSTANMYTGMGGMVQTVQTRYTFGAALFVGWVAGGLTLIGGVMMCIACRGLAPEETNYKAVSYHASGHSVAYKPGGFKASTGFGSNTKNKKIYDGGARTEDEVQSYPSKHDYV

B1: Ms1 (antibody, V domains shown)
VH: EIQLQQSGPELVKPGASVKVSCKASGYAYTRYNMYWVKQSHGKSLEWIGYIDPYNGGTNYNQKFKGKATLTVDKSSSTAYMHLNSLTSEDSAVYYCARGGYYGNAMDYWGQGTSVTVSS
VL: DIVMTQSPSSLTVTAGEKVTMSCKSSQSLLNSGNQKNYLTWYQQKPGQPPKLLIYWASTRESGVPDRFTGSGSGTDFTLTISSVQAEDLSIYYCQSNYIYPFTFGAGTTLELQ
In the case of B1, the binding result [1] is reported as “no binding (tested: 10 µg/ml)”, the “endocytosis derived cell toxicity EC50, CHO-18.2 cells (anti-IgG Fc-MMAF co-internalization)” value (“endocytosis derived cell toxicity EC50” below) [2] is reported as 1.09 nM and the EC50 [3] is reported as 1.2 nM. It also gave an EC50 [4] of 2 to 20 nM.

B2: Ms3 (antibody, V domains shown)
VH: EVMLVESGGGIVKPGGSLKLSCAASGFTLSSYTMSWVRQTPERRLEWVATIIIGGSYTYYPDSVKGRFTISRDNAKNTLYLQMSSLRSEDTAMYYCARQGYGNSFPYWGQGTLVTVSA
VL: DIVMTQSPSSLTVTAGEKVTMSCKSSQSLLNSGNQKNYLTWYQQKPGQPPKLLIYWASTRESGVPDRFTGSGSGTDFTLTISSVQAEDLAVYYCQNDYSYPFTFGSGTKLEIK
B2 was tested, and the binding result [1] was “no binding (tested: 10 µg/ml)”, the “endocytosis derived cell toxicity EC50” value [2] was 1.14 nM and the EC50 [3] was 1.8 nM. For the same binder, the EC50 [4] was 2 to 20 nM.

B3: Ms7 (antibody, V domains shown)
VH: EVKLVESGGDLVQPGGSLRLSCTTPGFTFSDFYMEWVRQPPGKRLEWIAASRNKANDYTTENSASVKGRFIVSRDTSQSILYLQMNALRAEDTAIYYCARDACPWDWFAYWGQGTLVTVSA
VL: DIVMTQSPSSLTVTAGEKVTMSCKSSQSLLNSGNQKNYLTWYQQKPGQPPKLLIYWASTRESGVPDRFTGSGSGTDFTLTISSVQAEDLAVYYCQNDYSYPFTFGSGTKLEIK
B3 was tested, and the binding result [1] was “no binding (tested: 10 µg/ml)”, the “endocytosis derived cell toxicity EC50” value [2] was 1.12 nM and the EC50 [3] was 1.4 nM. For the same binder, the EC50 [4] was 2 to 20 nM.

B4: Ms8 (antibody, V domains shown)
VH: EIQLQQSGPELVKPGASVKVSCKASDYAFTRYNMYWVKQSHGKSLEWIGYIDPYNGGTNYNQKFKGKATLTVDKSSSTAYMHLNSLTSEDSAVYYCARGGYYGNAMDYWGQGTSVTVSS
VL: DIVMTQSPSSLTVTAGEKVTMSCKSSQSLLNSGNQKNYLTWYQQKPGQPPQLLIYWASTRESGVPDRFTGSGSGTDFTLTISSVQAEDLSIYYCQSNYIYPFTFGAGTTLELQ
With B4 the binding result [1] was “no binding (tested: 10 µg/ml)”, the “endocytosis derived cell toxicity EC50” value [2] was 1.08 nM and the EC50 [3] was 1.5 nM. The EC50 [4] was 2 to 20 nM.

B5: Hu-14 (antibody, V domains shown)
VH: EVQLLESGGGLVQPGGSLRLSCAASGITFSSYAMSWVRQVPGKGLEWVSVISGSGGSTYYADSVKGRFTISRDNSKNTLYLQMNSLRAEDTAVYYCAKDRGYDILTTYYDYFYGMDVWGQPEFQHTGG
VL: DIQMTQSPSSLSASVGDRVIITCRASQGIRNDLGWYQQKPGKAPKRLIYAASSLQSGVPSRFSGSGSGTEFTLTISSLQPEDLASYYCLQHNSYPYTFGQGTKLEIK
With B5 the “endocytosis derived cell toxicity EC50” value [5] was 1.51 nM, the “ADCC EC50, CHO-18.2 target cells (mouse FcγRIV reporter bioluminescence)” value (from here on “ADCC EC50, CHO-18.2 target cells”) [6] was 1.51 nM and the EC50 [3] was 19 nM.

B6: Hu-5 (antibody, V domains shown)
VH: QVQLVQSGAEVKKPGASVKVSCEASGYTFTSSYMHWVRQAPGQGLEWMGIINPSGGRTNYAQKFQGRVTMTRDTSTSTVYMELSSLRSEDTAVYYCARDHYDIFTTYYPRGMDVWGQGTTVTVSS
VL: DIQMTQSPSSLSASVGDRVTITCRASQGIRNDLGWYQQKPGKAPKRLIYAASSLQSGVPSRFSGSGSGTEFTLTISSLQPEDFTTYYCLQHNSFPFTFGQGTELEIR
For B6, the “endocytosis derived cell toxicity EC50” value [5] was 13.4 nM, the binding result [1] was “no binding (tested: 10 µg/ml)” and the “ADCC EC50, CHO-18.2 target cells” value [6] was 7.09 nM. For the same binder, the EC50 [3] was 4.5 nM.

B7: Hu-16 (antibody, V domains shown)
VH: EVQLLESGGGVVQPGGSLRLSCAASGLIFSSYAMSWVRQAPGKGLEWVSVIGGSGSNTFYADSVKGRFTISRDNSKNTLFLQMNSLRAEDTAVYYCAKDRGYDILTGYYNYYYGMDVWGQGITVTVSS
VL: DIQMTQSPSSLSASVGDRVTITCRASQGIRNDLGWYQQKPGKAPKRLIYAASSLQSGVPSRFSGSGSGTEFTLTISSLQPEDFATYYCLQHNSYPYTFGQGTKLEIK
B7 was tested, and the “endocytosis derived cell toxicity EC50” value [5] was 3.09 nM, the binding result [1] was “no binding (tested: 10 µg/ml)” and the “ADCC EC50, CHO-18.2 target cells” value [6] was 3.09 nM. For the same binder, the EC50 [3] was 12 nM.

B8: Ms12 (antibody, V domains shown)
VH: EIQLQQSGPELVKPGASVKVSCKASGYAFASYKMYWVKQSHGKSLEWIGYIDPYNGVTSYNQKFRGKATLTVDKSSSTAYMHLNSLTSEDSAVYYCARGAYYGNSFDYWGQGTTLTVSS
VL: DIVMTQSPSSLTVTAGEKVTMSCKSSQSLLNSGNQKNYLTWYQQQPGQPPKLLIYWASTRESGVPDRFTGSGSGTDFTLTISSVQAVDLAVYYCQSAYSFPYTFGGGTKLEVK
B8 was tested, and the binding result [1] was “no binding (tested: 10 µg/ml)”, the “endocytosis derived cell toxicity EC50” value [2] was 1.07 nM and the EC50 [3] was 2 nM. For the same binder, the EC50 [4] was 2 to 20 nM.

B9: Ms5 (antibody, V domains shown)
VH: QVQLQQPGAELVKPGASVKLSCKASGYTFTRYLMHWVKQRPGQGLEWIGEINPSNGRTNYNEKFKSKAALTVDKSSSTAYMQLSSLTSEDSAVYYCARLAYGYGNAVDYWGQGTSVTVSS
VL: DIVMTQSPSSLSVSAGEKVTMSCKSSQSLLNSGNQKNYLAWYQQKPGQPPKLLIYGASTRESGVPDRFTGSGSGTDFTLTISSVQAEDLAVYYCQNDHSYPLTFGAGTKLELK
For B9, the binding result [1] was “no binding (tested: 10 µg/ml)”, the “endocytosis derived cell toxicity EC50” value [2] was 1.43 nM and the EC50 [3] was 1.7 nM. For the same binder, the EC50 [4] was 2 to 20 nM.

B10: Ms10 (antibody, V domains shown)
VH: EVQLQQSGPELEKPGASVKISCKASGYSFTGYKMNWVKQSNGKSLEWIGHIDPYYGGPRYNKKFMGKATLTVDRSSSTAYMQLKSLTSEDSAVYYCARLDYGNSFAYWGQGTLVTVSA
VL: DIVMTQSPSSLSVSAGEKVTMSCKSSQSLLNSGNQKNYLAWYQQKPGQPPKLLIYGASTRESGVPDRFTGSGSGTDFTLTISSVQAEDLAVYYCQNDHSYPFTFGGGTKLEIK
B10 was tested, and the binding result [1] was “no binding (tested: 10 µg/ml)”, the “endocytosis derived cell toxicity EC50” value [2] was 0.96 nM and the EC50 [3] was 1.3 nM. For the same binder, the EC50 [4] was 2 to 20 nM.

B11: Ms6 (antibody, V domains shown)
VH: QVQLQQSGAELAKPGASVKMSCRASGYTFTSYLMHWIKQRPGQALEWIGYINPTTDYTEYNQKFKGKATLTADKSSSTAYMQLSSLTSEDSAVYYCGRLGYYKRNAMDHWGQGTSVTVSS
VL: DIVMTQSPSSLSVSAGEKVTMSCKSSQSLLNSGNQKNYLAWYQQKPGQPPKLLIYGASTRESGVPDRFTGSGSGTDFTLTISSVQAEDLAVYYCQNDHFYPLTFGAGTKLELK
With B11 the binding result [1] was “no binding (tested: 10 µg/ml)”, the “endocytosis derived cell toxicity EC50” value [2] was 1.26 nM and the EC50 [3] was 1.2 nM. It also gave an EC50 [4] of 2 to 20 nM.
